Consider one substance from US6225451.

For this data set, the system named is T1, CHD1.ZnF3-8 (CHD1 zinc fingers 3 through 8) (Homo sapiens).
T1 sequence: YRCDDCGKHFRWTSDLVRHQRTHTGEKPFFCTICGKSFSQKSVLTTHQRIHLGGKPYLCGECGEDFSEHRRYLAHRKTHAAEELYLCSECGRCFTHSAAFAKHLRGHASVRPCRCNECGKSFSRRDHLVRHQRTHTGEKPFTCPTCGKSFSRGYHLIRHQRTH
Description: EMSA. The conditions noted are these: apparent, upper limit from protein dilution; poly d(I:C) does not compete.

With ApoAIV promoter fragment -573 to -165, the Kd worked out at 10 nM.
